The target in assay [1] is T1, PSA (human, UniProt P07288). Nature of the assay: other, IFMA.
The target in assay [2] is T1, PSA. Nature of the assay: competition, IFMA with free PSA.
The next assay addresses hK2 (human, UniProt P20151). Nature of the assay: other, IFMA.
Another assay deals with trypsin. Nature of the assay: other, IFMA.
The next assay addresses T2, cathepsin G (human, UniProt P08311).
T2 chain: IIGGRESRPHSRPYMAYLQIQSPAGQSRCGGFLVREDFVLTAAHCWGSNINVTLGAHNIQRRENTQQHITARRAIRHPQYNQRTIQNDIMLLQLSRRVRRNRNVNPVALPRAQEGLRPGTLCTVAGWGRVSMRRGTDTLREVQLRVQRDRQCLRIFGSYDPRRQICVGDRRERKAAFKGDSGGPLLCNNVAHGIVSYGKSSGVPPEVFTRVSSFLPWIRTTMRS
The assay is described as follows: other, IFMA.

No end group written: not given here.

T1 sequence (P07288 25-261): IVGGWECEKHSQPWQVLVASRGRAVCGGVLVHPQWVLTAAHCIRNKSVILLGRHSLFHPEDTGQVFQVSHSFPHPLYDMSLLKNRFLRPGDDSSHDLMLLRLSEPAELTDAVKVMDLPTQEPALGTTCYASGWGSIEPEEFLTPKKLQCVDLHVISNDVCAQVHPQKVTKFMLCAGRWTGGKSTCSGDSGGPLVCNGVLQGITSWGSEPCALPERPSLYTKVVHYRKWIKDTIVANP
Chain of hK2 (P20151 25-261): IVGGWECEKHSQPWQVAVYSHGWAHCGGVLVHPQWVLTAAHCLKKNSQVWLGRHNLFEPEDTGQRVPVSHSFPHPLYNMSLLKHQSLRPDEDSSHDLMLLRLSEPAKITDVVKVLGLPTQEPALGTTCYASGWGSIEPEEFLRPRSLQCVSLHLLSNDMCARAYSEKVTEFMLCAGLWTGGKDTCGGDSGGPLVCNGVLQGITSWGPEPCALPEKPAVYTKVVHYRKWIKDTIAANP

B1: GST-D-1 (peptide)
chain: CLSTCAQSCRISC
modifications: not fully specified (bridges); cysteine pairing not given here; also: GST fusion protein
For the molecule B1, in the assay with PSA [1], the binding result was “no binding”.

B2: GST-C-4 (peptide)
chain: CVAYCIEHHCWTC
Molecule B2 showed an IC50 with PSA [2] of 0.7 nM. Moreover, the binding result with hK2, with trypsin and with cathepsin G was “no binding” each time.

For the origin of these results see patent publication US20080312141 (published 2008).
